Results: US20190225669A1 (ACCELERON PHARMA, published 2019)
Where two headings read alike, the source gives them in different places.

T1: TGFβ2 (human, UniProt P61812 303-414)
T1 sequence (looked up): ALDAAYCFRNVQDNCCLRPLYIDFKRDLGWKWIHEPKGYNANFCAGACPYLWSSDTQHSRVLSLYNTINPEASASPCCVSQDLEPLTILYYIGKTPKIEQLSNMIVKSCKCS

T2: TGFβ3 (human, UniProt P10600 301-412)
T2 sequence (looked up): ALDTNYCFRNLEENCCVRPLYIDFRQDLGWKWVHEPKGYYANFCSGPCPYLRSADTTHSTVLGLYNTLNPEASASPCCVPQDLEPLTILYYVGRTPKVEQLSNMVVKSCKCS

T3: BMP10 (UniProt O95393 317-424)
T3 sequence (looked up): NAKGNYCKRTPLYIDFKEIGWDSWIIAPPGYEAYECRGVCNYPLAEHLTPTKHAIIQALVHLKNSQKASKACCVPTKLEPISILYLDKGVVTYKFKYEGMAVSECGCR

T4: BMP9 (UniProt Q9UK05 320-429)
T4 construct: also called GDF2
T4 sequence (looked up): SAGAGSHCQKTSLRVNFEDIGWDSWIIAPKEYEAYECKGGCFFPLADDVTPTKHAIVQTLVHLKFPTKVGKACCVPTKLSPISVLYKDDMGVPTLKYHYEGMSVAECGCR

T5: BMPRII-Fc homodimer (UniProt Q13873 27-150)
T5 construct: extracellular domain
T5 sequence (looked up): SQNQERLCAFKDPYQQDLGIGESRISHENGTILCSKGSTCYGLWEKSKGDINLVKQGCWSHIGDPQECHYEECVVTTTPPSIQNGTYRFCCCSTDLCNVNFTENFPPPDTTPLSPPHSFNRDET

T6: GDF8 (UniProt O14793 267-375)
T6 construct: also called myostatin
T6 sequence (looked up): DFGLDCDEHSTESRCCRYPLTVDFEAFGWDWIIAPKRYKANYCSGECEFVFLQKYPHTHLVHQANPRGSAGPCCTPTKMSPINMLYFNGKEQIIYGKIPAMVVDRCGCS

T7: GDF7 (UniProt Q7Z4P5 322-450, limits assumed)
T7 construct: also called BMP12
T7 sequence (looked up): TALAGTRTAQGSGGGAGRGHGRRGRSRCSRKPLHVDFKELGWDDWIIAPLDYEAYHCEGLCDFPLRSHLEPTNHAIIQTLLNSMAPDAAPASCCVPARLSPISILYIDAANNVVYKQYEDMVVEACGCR

T8: BMP4 (UniProt P12644 293-408)
T8 sequence (looked up): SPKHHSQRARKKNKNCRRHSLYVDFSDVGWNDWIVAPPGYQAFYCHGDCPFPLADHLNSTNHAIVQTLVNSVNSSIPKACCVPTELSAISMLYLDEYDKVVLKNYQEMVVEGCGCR

T9: BMP7 (UniProt P18075 293-431)
T9 sequence (looked up): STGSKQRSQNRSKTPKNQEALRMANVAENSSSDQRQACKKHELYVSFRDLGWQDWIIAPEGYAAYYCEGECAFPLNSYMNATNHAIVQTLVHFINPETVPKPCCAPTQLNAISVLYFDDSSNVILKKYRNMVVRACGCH

T10: BMP5 (UniProt P22003 317-454, limits assumed)
T10 sequence (looked up): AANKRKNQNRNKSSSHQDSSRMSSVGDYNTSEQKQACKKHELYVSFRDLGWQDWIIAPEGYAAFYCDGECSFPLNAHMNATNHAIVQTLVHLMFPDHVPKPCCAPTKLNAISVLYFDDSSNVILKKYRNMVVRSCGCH

T11: GDF5 (UniProt P43026 382-501)
T11 construct: also called BMP14
T11 sequence (looked up): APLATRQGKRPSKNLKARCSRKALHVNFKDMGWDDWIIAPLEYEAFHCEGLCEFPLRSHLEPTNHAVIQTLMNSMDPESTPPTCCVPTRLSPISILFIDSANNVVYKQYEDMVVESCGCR

T12: activin B (UniProt P09529 293-407)
T12 sequence (looked up): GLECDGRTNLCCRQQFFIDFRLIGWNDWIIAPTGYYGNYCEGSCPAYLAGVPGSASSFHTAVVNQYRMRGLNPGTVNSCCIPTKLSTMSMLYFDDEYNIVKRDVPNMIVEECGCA

T13: activin A (UniProt P08476 311-426)
T13 sequence (looked up): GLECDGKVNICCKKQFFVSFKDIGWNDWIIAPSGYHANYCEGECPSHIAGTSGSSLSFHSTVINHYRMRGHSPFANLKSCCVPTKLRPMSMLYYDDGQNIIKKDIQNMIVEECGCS

T14: BMP6 (UniProt P22004 382-513, limits assumed)
T14 sequence (looked up): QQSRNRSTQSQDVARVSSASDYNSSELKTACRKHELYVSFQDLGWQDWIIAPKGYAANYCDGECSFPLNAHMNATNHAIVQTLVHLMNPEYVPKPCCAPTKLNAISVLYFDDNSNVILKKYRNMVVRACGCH

T15: GDF11 (UniProt O95390 299-407)
T15 construct: also called BMP11
T15 sequence (looked up): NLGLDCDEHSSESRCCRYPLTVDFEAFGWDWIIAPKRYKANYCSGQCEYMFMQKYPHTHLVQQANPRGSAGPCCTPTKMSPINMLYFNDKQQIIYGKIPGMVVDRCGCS

T16: GDF3 (UniProt Q9NR23 251-364)
T16 sequence (looked up): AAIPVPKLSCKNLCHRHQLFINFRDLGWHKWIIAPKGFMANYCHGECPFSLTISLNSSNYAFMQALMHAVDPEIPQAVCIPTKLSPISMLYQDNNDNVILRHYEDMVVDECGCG

B1: TGFβRIISHORT-Fc:ALK5-Fc heterodimer (Fc fusion)
chain 1: TIPPHVQKSVNNDMIVTDNNGAVKFPQLCKFCDVRFSTCDNQKSCMSNCSITSICEKPQEVCVAVWRKNDENITLETVCHDPKLPYHDFILEDAASPKCIMKEKKKPGETFFMCSCSSDECNDNIIFSEEYNTSNPDTGGGTHTCPPCPAPELLGGPSVFLFPPKPKDTLMISRTPEVTCVVVDVSHEDPEVKFNWYVDGVEVHNAKTKPREEQYNSTYRVVSVLTVLHQDWLNGKEYKCKVSNKALPAPIEKTISKAKGQPREPQVYTLPPSRKEMTKNQVSLTCLVKGFYPSDIAVEWESNGQPENNYKTTPPVLKSDGSFFLYSKLTVDKSRWQQGNVFSCSVMHEALHNHYTQKSLSLSPGK
chain 2: ALLPGATALQCFCHLCTKDNFTCVTDGLCFVSVTETTDKVIHNSMCIAEIDLIPRDRPFVCAPSSKTGSVTTTYCCNQDHCNKIELPTTVKSSPGLGPVETGGGTHTCPPCPAPELLGGPSVFLFPPKPKDTLMISRTPEVTCVVVDVSHEDPEVKFNWYVDGVEVHNAKTKPREEQYNSTYRVVSVLTVLHQDWLNGKEYKCKVSNKALPAPIEKTISKAKGQPREPQVYTLPPSREEMTKNQVSLTCLVKGFYPSDIAVEWESNGQPENNYDTTPPVLDSDGSFFLYSDLTVDKSRWQQGNVFSCSVMHEALHNHYTQKSLSLSPG
notes: also called TGFβRIISHORT:ALK5-Fc Heterodimer; TGFβRII-Fc:ALK5-Fc heterodimer (short isoform)
B2: GDF6 (ligand, UniProt Q6KF10 336-455, looked up)
chain: TAFASRHGKRHGKKSRLRCSKKPLHVNFKELGWDDWIIAPLEYEAYHCEGVCDFPLRSHLEPTNHAIIQTLMNSMDPGSTPPSCCVPTKLTPISILYIDAGNNVVYKQYEDMVVESCGCR
notes: also called BMP13
B3: ActRIIB-Fc:ALK3-Fc heterodimer (Fc fusion)
chain 1: GRGEAETRECIYYNANWELERTNQSGLERCEGEQDKRLHCYASWRNSSGTIELVKKGCWLDDFNCYDRQECVATEENPQVYFCCCEGNFCNERFTHLPEAGGPEVTYEPPPTAPTGGGTHTCPPCPAPELLGGPSVFLFPPKPKDTLMISRTPEVTCVVVDVSHEDPEVKFNWYVDGVEVHNAKTKPREEQYNSTYRVVSVLTVLHQDWLNGKEYKCKVSNKALPAPIEKTISKAKGQPREPQVYTLPPSRKEMTKNQVSLTCLVKGFYPSDIAVEWESNGQPENNYKTTPPVLKSDGSFFLYSKLTVDKSRWQQGNVFSCSVMHEALHNHYTQKSLSLSPGK
chain 2: GAQNLDSMLHGTGMKSDSDQKKSENGVTLAPEDTLPFLKCYCSGHCPDDAINNTCITNGHCFAIIEEDDQGETTLASGCMKYEGSDFQCKDSPKAQLRRTIECCRTNLCNQYLQPTLPPVVIGPFFDGSIRTGGGTHTCPPCPAPELLGGPSVFLFPPKPKDTLMISRTPEVTCVVVDVSHEDPEVKFNWYVDGVEVHNAKTKPREEQYNSTYRVVSVLTVLHQDWLNGKEYKCKVSNKALPAPIEKTISKAKGQPREPQVYTLPPSREEMTKNQVSLTCLVKGFYPSDIAVEWESNGQPENNYDTTPPVLDSDGSFFLYSDLTVDKSRWQQGNVFSCSVMHEALHNHYTQKSLSLSPG
notes: C-terminal Lys optional; also called ActRIIB-Fc:ALK3-Fc heterodimeric complex
B4: BMP2 (ligand, UniProt P12643 283-396, looked up)
chain: QAKHKQRKRLKSSCKRHPLYVDFSDVGWNDWIVAPPGYHAFYCHGECPFPLADHLNSTNHAIVQTLVNSVNSKIPKACCVPTELSAISMLYLDENEKVVLKNYQDMVVEGCGCR

Tests used:
[1] = molecular target: T17, TGFβ1 (human, UniProt P01137 279-390); assay: cell-based or functional assay
T17 sequence (P01137 279-390 limits assumed): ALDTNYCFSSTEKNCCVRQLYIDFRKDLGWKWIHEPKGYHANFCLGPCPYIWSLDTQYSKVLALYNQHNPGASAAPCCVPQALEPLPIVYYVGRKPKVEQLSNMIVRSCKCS

[2] = molecular target: T1, TGFβ2; assay: cell-based or functional assay
[3] = molecular target: T2, TGFβ3; assay: cell-based or functional assay
[4] = molecular target: T17, TGFβ1; assay: Biacore SPR; * low signal
Procedure: (§1) The heteromeric or homomeric protein complexes were independently captured onto the system using an anti-Fc antibody. Ligands were injected and allowed to flow over the captured receptor protein.

[5] = molecular target: T1, TGFβ2; assay: Biacore SPR; * low signal
Procedure: as §1

[6] = molecular target: T2, TGFβ3; assay: Biacore SPR; * low signal
Procedure: as §1

[7] = molecular target: T3, BMP10; assay: Biacore SPR
[8] = molecular target: T4, BMP9; assay: Biacore SPR
[9] = molecular target: T18, ALK3-Fc homodimer (UniProt P36894 24-152); assay: Biacore SPR
T18 construct: extracellular domain
Procedure: (§2) Ligands were injected and allowed to flow over the captured receptor protein.

[10] = molecular target: T5, BMPRII-Fc homodimer; assay: Biacore SPR; kinetics indeterminate (transient)
[11] = molecular target: T18, ALK3-Fc homodimer; assay: Biacore SPR; remark: listed apart in the source
Procedure: as §2

[12] = molecular target: T4, BMP9; assay: Biacore SPR; kinetics indeterminate (transient)
Procedure: as §2

[13] = molecular target: B2; assay: Biacore SPR
Procedure: as §2

[14] = molecular target: T6, GDF8; assay: Biacore SPR
Procedure: as §2

[15] = molecular target: T7, GDF7; assay: Biacore SPR
Procedure: as §2

[16] = molecular target: T8, BMP4; assay: Biacore SPR
Procedure: as §2

[17] = molecular target: B4; assay: Biacore SPR
Procedure: as §2

[18] = molecular target: T9, BMP7; assay: Biacore SPR
Procedure: as §2

[19] = molecular target: T3, BMP10; assay: Biacore SPR; remark: listed apart in the source
Procedure: as §2

[20] = molecular target: T10, BMP5; assay: Biacore SPR
Procedure: as §2

[21] = molecular target: T11, GDF5; assay: Biacore SPR
Procedure: as §2

[22] = molecular target: T12, activin B; assay: Biacore SPR
Procedure: as §2

[23] = molecular target: T13, activin A; assay: Biacore SPR
Procedure: as §2

[24] = molecular target: T14, BMP6; assay: Biacore SPR
Procedure: as §2

[25] = molecular target: T15, GDF11; assay: Biacore SPR
Procedure: as §2

[26] = molecular target: T16, GDF3; assay: Biacore SPR
Procedure: as §2

B1
IC50 (pM), CAGA12-luciferase reporter gene assay in A549 cells, TGFβ1 at 640 pg/mL [1]: < 350 pM
IC50 (pM), CAGA12-luciferase reporter gene assay in A549 cells, TGFβ2 at 480 pg/mL [2]: ~200 pM
IC50 (pM), CAGA12-luciferase reporter gene assay in A549 cells, TGFβ3 at 270 pg/mL [3]: < 90 pM
Kd [4]: 0.012 nM
koff [4]: 0.0017 s⁻¹
kon [4]: 1.4e+08 M⁻¹ s⁻¹
Kd [5]: 0.0004 nM
koff [5]: 2.9e-06 s⁻¹
kon [5]: 6.6e+06 M⁻¹ s⁻¹
Kd [6]: 0.038 nM
koff [6]: 0.001 s⁻¹
kon [6]: 2.7e+07 M⁻¹ s⁻¹
binding result [7]: no binding
binding result [8]: no binding

B2
Kd [9]: 40 nM
koff [9]: 0.0013 s⁻¹
kon [9]: 34000 M⁻¹ s⁻¹
Kd [10]: > 88 nM
Kd [11]: 40 nM
koff [11]: 0.0013 s⁻¹
kon [11]: 34000 M⁻¹ s⁻¹

B3
Kd [12]: > 33 nM
Kd [13]: 1.6 nM
koff [13]: 0.00045 s⁻¹
kon [13]: 280000 M⁻¹ s⁻¹
Kd [14]: 0.31 nM
koff [14]: 0.00092 s⁻¹
kon [14]: 3e+06 M⁻¹ s⁻¹
Kd [15]: 0.052 nM
koff [15]: 0.0004 s⁻¹
kon [15]: 7.5e+06 M⁻¹ s⁻¹
Kd [16]: 0.003 nM
koff [16]: 6.5e-06 s⁻¹
kon [16]: 2.6e+06 M⁻¹ s⁻¹
Kd [17]: 0.001 nM
koff [17]: 1.1e-05 s⁻¹
kon [17]: 8e+06 M⁻¹ s⁻¹
Kd [18]: 1.9 nM
koff [18]: 0.0015 s⁻¹
kon [18]: 820000 M⁻¹ s⁻¹
Kd [19]: 0.031 nM
koff [19]: 0.00094 s⁻¹
kon [19]: 3e+07 M⁻¹ s⁻¹
Kd [20]: 0.64 nM
koff [20]: 0.00058 s⁻¹
kon [20]: 900000 M⁻¹ s⁻¹
Kd [21]: 0.07 nM
koff [21]: 0.00083 s⁻¹
kon [21]: 1.2e+07 M⁻¹ s⁻¹
Kd [22]: 0.2 nM
koff [22]: 0.00057 s⁻¹
kon [22]: 2.8e+06 M⁻¹ s⁻¹
Kd [23]: 0.15 nM
koff [23]: 0.005 s⁻¹
kon [23]: 3.4e+07 M⁻¹ s⁻¹
Kd [24]: 0.015 nM
koff [24]: 0.00029 s⁻¹
kon [24]: 2e+07 M⁻¹ s⁻¹
Kd [25]: 0.066 nM
koff [25]: 0.0011 s⁻¹
kon [25]: 1.6e+07 M⁻¹ s⁻¹
Kd [26]: 5.9 nM
koff [26]: 0.082 s⁻¹
kon [26]: 1.4e+07 M⁻¹ s⁻¹

B4
Kd [10]: > 2000 nM
